Laboratory results reported in paper PMC5895705.

Target: Glucose-6-phosphate dehydrogenase aggregates formed at 50 °C (UniProt P11411)
Test: co-sedimentation; as a1 but ClpB homo- or heterohexamers (5 μM) with G6PDH50 aggregates in the absence of DnaK

Glucose-6-phosphate dehydrogenase aggregates formed at 50 °C, sequence (P11411 whole entry): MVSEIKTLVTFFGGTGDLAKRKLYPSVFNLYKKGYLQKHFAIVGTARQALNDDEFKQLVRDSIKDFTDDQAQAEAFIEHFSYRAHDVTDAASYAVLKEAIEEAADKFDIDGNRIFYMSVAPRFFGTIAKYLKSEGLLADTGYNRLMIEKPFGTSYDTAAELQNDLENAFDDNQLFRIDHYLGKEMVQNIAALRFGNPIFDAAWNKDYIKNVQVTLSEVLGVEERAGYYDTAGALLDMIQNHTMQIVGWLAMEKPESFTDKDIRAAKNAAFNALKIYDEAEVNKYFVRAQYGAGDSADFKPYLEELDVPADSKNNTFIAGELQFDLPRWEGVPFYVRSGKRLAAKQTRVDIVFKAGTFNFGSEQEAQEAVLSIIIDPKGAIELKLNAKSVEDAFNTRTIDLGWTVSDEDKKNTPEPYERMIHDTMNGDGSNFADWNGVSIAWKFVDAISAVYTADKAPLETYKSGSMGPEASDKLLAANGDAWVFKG

fold binding relative to wt ClpB (in the absence of DnaK): 4 fold
Substance: ClpB_(E279A/E678A) (from UniProt P63284 1-857) (natural protein)
